Measured values from publication PMC3146575.

What was measured:
[1] = biological target: T1, hOGG1 K249Q (catalytically inactive) (human, UniProt O15527 1-345, K249Q); assay: EMSA
[2] = biological target: T1, hOGG1 K249Q (catalytically inactive); assay: EMSA; remark: listed apart in the source

T1 sequence (O15527 whole entry K249Q): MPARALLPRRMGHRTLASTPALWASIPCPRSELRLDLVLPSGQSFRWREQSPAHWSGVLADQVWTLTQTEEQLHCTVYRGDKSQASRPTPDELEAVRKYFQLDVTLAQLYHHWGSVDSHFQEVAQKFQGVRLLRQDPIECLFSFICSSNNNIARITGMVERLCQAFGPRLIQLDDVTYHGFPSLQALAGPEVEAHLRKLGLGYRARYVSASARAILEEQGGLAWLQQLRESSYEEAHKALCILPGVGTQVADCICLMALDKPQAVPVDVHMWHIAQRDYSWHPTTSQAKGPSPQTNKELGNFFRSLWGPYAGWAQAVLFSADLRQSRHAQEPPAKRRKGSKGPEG

B1: Stem-DUP (dsDNA)
DNA 1: CAGCAGCAGCAGCAGCAGCAGCAGCAGCAG
DNA 2: CTGCTGCTGCTGCTGCTGCTGCTGCTGCTG
modifications: 8-oxoG in 2nd CAG repeat (G6 of strand 1)
[1]
  Kd: 21.7 ± 6.8 nM

## CAGCAGCAGCAGCAGCAGCAGCAGCAGCAG (structured_DNA, 8-oxoG in 2nd CAG repeat (G6)) [Stem-HP]
[2]
  binding result: no binding

## CAGCAGCAGCAGCAGCAGCAGCAGCAGCAG (structured_DNA, 8-oxoG in 5th CAG repeat (G15)) [Loop-HP]
[2]
  binding result: no binding
